Measured values from patent US7422862B2, “Methods for identifying modulators of apoptosis” (The Burnham Institute, priority 2001, dated 2008).

Tests used:
Bax [1] = molecular target: T1, Bax (Homo sapiens, UniProt Q07812); assay: Bax-induced apoptosis in transfected neuronal cells (DAPI staining); type: cell-based; set-up: expressed in transfected cells
Experimental: (A) HEK293T cells were transfected with pcDNA3-HA-Bax together with plasmids encoding GFP, GFP-HN(N), or GFP-HN(M). Cell lysates were immunoprecipitated with polyclonal anti-GFP antibody. Immunoprecipitates (IP) or cell lysates were analyzed by immunoblotting using anti-HA or anti-GFP antibodies, respectively. (B) CSM14.1 neuronal cells were co-transfected with pcDNA3-HA-Bax together with plasmids encoding GFP, GFP-HN(N), or GFP-HN(M). Percent apoptosis was determined 48 h later by DAPI staining (mean±SD; n=3).
Rat neuronal cell line CSM14.1 cells were transfected with various plasmids using the Lipofectamine reagent (Invitrogen). For transfection, 10×10^5 cells were plated per well using 6 well plates. Each well received 1 μg DNA plus […] of Lipofectamine. After 24 hours of transfection, the percentage of cell death was determined using 4′-6-diamidino-2-phenylindole (DAPI) staining. […] The data shown were obtained using the cytosolic form of Humanin; however, both cytosolic and mitochondrial forms of Humanin were tested and the results were the same.
Apoptosis assays were performed as follows. Both floating and adherent cells (after trypsinization) were collected 48 hr after transfection, fixed, and stained using 4′,6-diamidine-2′-phenylindole dihydrochloride (DAPI) for assessing apoptosis based on nuclear fragmentation and chromatin condensation (Fields and Song, supra (1989)).
Since Humanin co-immunoprecipitates with Bax but not Bak, the effects of Humanin over-expression on apoptosis induced by these members of the Bcl-2 family was compared. […] Similar results were obtained regardless of whether Humanin was fused to the N- or C-terminus of GFP, with both of these GFP fusion polypeptides localizing to the cytosol of cells.

Bax [2] = molecular target: T1, Bax; assay: Co-immunoprecipitation of GFP-Humanin fusion polypeptides with Bax in transfected cells; type: binding; set-up: expressed in transfected cells; host or cells: HEK293T; key to Bax binding: +: ability to bind Bax was determined by co-immunoprecipitation assay; −: lacked Bax-binding activity; settings: for co-immunoprecipitation with tagged Bax: 293T/HEK293T cells, anti-GFP immunoprecipitation
Source text: Humanin (HN) cDNA was sub-cloned into a Green Fluorescence Protein (GFP) expression vector GFP-Cl at the Xhol/Hind III sites, producing a GFP-HN fusion polypeptide. GFP and GFP-HN were transfected into 293T cells with pcDNA3-HA-Bax. Cell lysates from these cells were immunoprecipitated with anti-GFP antibody and subsequently blotted with anti-HA antibody. The lysates were also blotted with ani-GFP antibody to confirm polypeptide expression. […] The data shown were obtained using the cytosolic form of Humanin; however, both cytosolic and mitochondrial forms of Humanin were tested and the results were the same.
Co-immunoprecipitation assays were performed using Humanin polypeptides expressed as fusion polypeptides with the Green Fluorescent Protein (GFP) in human cells. Wild-type Humanin fused to GFP is referred to as GFP-HN and a mutant form of Humanin, where the cysteine at position 8 is replaced with proline, fused to GFP is referred to as GFP-C8P. […] Immunoblot analysis of lysates of the transfected cells confirmed production of all proteins. In addition, GFP-HN also coimmunoprecipitated endogenous Bax from cell lines, which contain relatively high levels of the Bax protein.
Immunoblotting and immunoprecipitations were performed as follows. Immunoblotting was performed as described previously (Fields and Song, Nature 340:245-246 (1989)). For co-immunoprecipitations, cells were cultured in 50 uM […] Valine Alanine Asparate fluoromethyl-ketone (zVAD-fmk) to prevent apoptosis. Cells were suspended in lysis buffer (50 mM Tris-HCl, pH7.4; 150 mM NaCl; 20 mM EDTA; 50 mM NaF; 0.5% NP-40; 0.1 mM Na3VO4; 20 ug/ml Leupeptin; 20 ug/ml Aprotinin; 1 mM DTT; and 1 mM PMSF). Lysates (200 ul diluted in 1 ml final volume of lysis buffer) were cleared by incubation with 15 ul of protein G-Sepharose 4B (Zymed) and then incubated with 15 ul of polyclonal antibody and 15 ul of protein G at 4° C. overnight. Beads were then washed 4 times with 1.5 mls lysis buffer before boiling in Laemmli sample buffer and performing SDS-PAGE/immunoblotting.
In order to explore whether a correlation exists between Humanin binding to Bax and Humanin-mediated suppression of apoptosis, Bax was co-expressed with various GFP-fusion polypeptides encoding wild-type, full-length Humanin or various truncation and site-specific mutants of Humanin (Table 1). Expression of all GFP-fusion polypeptides was confirmed by immunoblotting, and ability to bind Bax was determined by co-immunoprecipitation assay. Each Humanin mutant was scored for ability to suppress apoptosis induced by Bax over-expression by >50% using a 3:1 ratio of HN:Bax plasmid DNA. […] Based on these studies, an active region of the 24 amino-acid Humanin peptide, mapped to residues 7-17.

Bak = molecular target: T2, Bak (Homo sapiens, UniProt Q16611); assay: Co-immunoprecipitation with Bcl-2 family proteins in HEK293T cells; type: binding; set-up: expressed in transfected cells; host or cells: HEK293T
T2 sequence (Q16611 1-211): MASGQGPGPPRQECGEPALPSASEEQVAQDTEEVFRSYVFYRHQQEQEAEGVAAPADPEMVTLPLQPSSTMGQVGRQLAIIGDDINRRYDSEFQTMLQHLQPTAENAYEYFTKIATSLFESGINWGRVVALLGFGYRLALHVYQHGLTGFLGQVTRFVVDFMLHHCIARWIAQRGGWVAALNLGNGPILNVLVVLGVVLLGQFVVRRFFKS
Source text: (A) HEK293T cells were transfected with pcDNA3-myc plasmids encoding Bax or other Bcl-2 family proteins with GFP, GFP-HN, or GFP-HN(C8P). Cell lysates were immunoprecipitated with polyclonal anti-GFP antibody. The immunoprecipitates or the lysates were blotted with anti-myc or anti-GFP antibodies, respectively. The slower migrating form of GFP seen in lane 1 (asterisk)represents an alternative form of GFP produced from the wild-type (control) p-EGFP-Cl plasmid (http://clonotech.com). (B) Testes of three-week-old mice were homogenized in lysis buffer (0.1% Triton X-100, 50 mM Tris-HCl, pH7.5, 1 mM EDTA, plus protease inhibitor cocktail). The lysates were immunoprecipitated with control rabbit serum or polyclonal anti-mouse Bax antibody. The immunoprecipitates or the lysates were subjected to electrophoresis in Tris/Tricine gels (16% T, 3% C), electroblotted to PVDF membrane, and immunoblotted with polyclonal anti-HN antibody or monoclonal anti-Bax antibody 6A7 (Trevigen). (C) The affinity (Kd) of Bax/HN interaction was measured by fluorescence polarization assay, using various concentrations of purified recombinant Bax and 40 nM rhodamine-conjugated HN peptide. Control peptide from CD40 is also shown (mean +Std Dev; n=3).
Furthermore, multiple Bcl-2 family proteins were surveyed for interactions with Humanin by coimmunoprecipitation experiments (FIG. 5A). […]

Bax [3] = assay: Bax-induced lethality in yeast; type: cell-based, S. cerevisiae; settings: TAD-fusion polypeptide, galactose-induced Bax

T1 sequence (Q07812 whole entry, species assumed): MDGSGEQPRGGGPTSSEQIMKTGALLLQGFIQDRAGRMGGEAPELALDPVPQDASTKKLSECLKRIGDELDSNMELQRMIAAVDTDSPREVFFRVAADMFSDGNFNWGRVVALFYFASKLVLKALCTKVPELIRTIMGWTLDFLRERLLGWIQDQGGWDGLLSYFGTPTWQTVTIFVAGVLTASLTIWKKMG

| Substance | suppression of Bax-induced apoptosis, nuclear vs mitochondria-encoded form (Bax [1]; CSM14.1 cells, 48 h, DAPI) | suppression of apoptosis induced by Bax (Bax [1]; CSM14.1 or PC-3 cells, transient co-transfection) | co-immunoprecipitation with tagged Bax (Bax [2]) | co-immunoprecipitation with tagged Bax (Bax [2]; listed as GFP-HN(N)) | Bax binding (Bax [2]; GFP-fusion polypeptides, co-immunoprecipitation) | co-immunoprecipitation of endogenous Bax (Bax [2]; cell lines with relatively high levels of Bax) | co-immunoprecipitation with Bak (Bak) | rescue of yeast from Bax-induced lethality (Bax [3]) | Bax-induced apoptosis (Bax [1]; CSM14.1 cells, 24 hours after transfection, DAPI) |
| --- | --- | --- | --- | --- | --- | --- | --- | --- | --- |
| GFP-HN: Wild-type full-length Humanin fused to Green Fluorescent Protein | suppressed to comparable extents | about half | co-immunoprecipitated | comparable amounts | + | coimmunoprecipitated | did not co-immunoprecipitate | – | – |
| Humanin: 24 amino acid polypeptide, cytosolic form of human Humanin (SEQ ID NO:2); used as synthetic peptide or expressed fusion | – | – | co-immunoprecipitate | – | – | – | – | rescued | decreased |
